# ± gives the standard error. Fewer inactive variants are shown than the library holds.
# B1: glmS ribozyme (parent)
# chain: AUAAAAGCGCCAGAACUACAGAAAUGUAGUUGACGAGGAGGAGGUUUAUCGAAUUUUCGGCGGAUGCCUCCAAA
# Tests used:
# Conditions in all cases: with glucosamine-6-phosphate
# glucosamine-6-phosphate [1] = variants of: B1; assay: self-cleavage kobs at 160 uM GlcN6P; higher = faster cleavage; RNA array
# Method in brief: (§1)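 kobs was derived by fitting per-tile medians to one- or two-exponential decays after normalising signals to baseline and to non-cleaving reference variants. Those signals came from barcoded ribozyme variants transcribed in situ by E. coli RNA polymerase on sequenced MiSeq chips, followed through a hybridised Cy3 probe at 37 °C and imaged over ~14 h. Glucosamine-6-phosphate (40 μM to 10 mM) in HEPES/KCl/Mg(OAc)2 buffer was flowed in. Weighted Michaelis–Menten fits across concentrations then gave kcat and KM.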
# glucosamine-6-phosphate [2] = variants of: B1; assay: self-cleavage kobs at 640 uM GlcN6P; higher = faster cleavage; RNA array
# Method in brief: as §1
# glucosamine-6-phosphate [3] = variants of: B1; assay: self-cleavage kobs at 2500 uM GlcN6P; higher = faster cleavage; RNA array
# Method in brief: as §1
# glucosamine-6-phosphate [4] = variants of: B1; assay: self-cleavage kobs at 10000 uM GlcN6P; higher = faster cleavage; RNA array
# Method in brief: as §1
Variant,self-cleavage kobs at 160 uM GlcN6P (glucosamine-6-phosphate [1]),self-cleavage kobs at 640 uM GlcN6P (glucosamine-6-phosphate [2]),self-cleavage kobs at 2500 uM GlcN6P (glucosamine-6-phosphate [3]),self-cleavage kobs at 10000 uM GlcN6P (glucosamine-6-phosphate [4])
G9A G32A G43C U56C C68U,< 1e-05 s⁻¹,< 1e-05 s⁻¹,< 1e-05 s⁻¹,
A33G A48C A52G,< 1e-05 s⁻¹,< 1e-05 s⁻¹,,
A15C A53C C68U,< 1e-05 s⁻¹,,,
C10G U31A U49G,< 1e-05 s⁻¹,,,
G9C U56C C67U C71G,< 1e-05 s⁻¹,< 1e-05 s⁻¹,< 1e-05 s⁻¹,
G13U G21U G37C,< 1e-05 s⁻¹,,,
G41A G62C,< 1e-05 s⁻¹,< 1e-05 s⁻¹,< 1e-05 s⁻¹,
C8A G59A,< 1e-05 s⁻¹,< 1e-05 s⁻¹,< 1e-05 s⁻¹,< 1e-05 s⁻¹
C8U G63A,< 1e-05 s⁻¹,,< 1e-05 s⁻¹,< 1e-05 s⁻¹
C16A G29C C58U,< 1e-05 s⁻¹,,,
A14C U30G G41C A53G,< 1e-05 s⁻¹,,< 1e-05 s⁻¹,
G32C U47A G62C A64G,< 1e-05 s⁻¹,< 1e-05 s⁻¹,< 1e-05 s⁻¹,
A15G G40U C70A,4.48e-05 ± 1.3e-05 s⁻¹,0.000328 ± 8e-05 s⁻¹,0.000773 ± 0.00016 s⁻¹,0.000531 ± 0.00014 s⁻¹
U31C U45A C67A,0.000102 ± 3e-05 s⁻¹,0.000203 ± 4.8e-05 s⁻¹,0.000723 ± 0.00023 s⁻¹,
G43U C61G C71U,< 1e-05 s⁻¹,,,
A14G A33C U46G C58U G59U,< 1e-05 s⁻¹,< 1e-05 s⁻¹,< 1e-05 s⁻¹,
A6U G44U U55C,< 1e-05 s⁻¹,< 1e-05 s⁻¹,< 1e-05 s⁻¹,
U49C C58A G60U,< 1e-05 s⁻¹,< 1e-05 s⁻¹,< 1e-05 s⁻¹,
G13U U31A C34A A48C G62U,< 1e-05 s⁻¹,,,
G7A C50A G51A,< 1e-05 s⁻¹,< 1e-05 s⁻¹,< 1e-05 s⁻¹,
G9A C50A,< 1e-05 s⁻¹,< 1e-05 s⁻¹,< 1e-05 s⁻¹,< 1e-05 s⁻¹
G35C A36G U49A,< 1e-05 s⁻¹,< 1e-05 s⁻¹,< 1e-05 s⁻¹,
C50G C61U C71U,0.000138 ± 4.3e-05 s⁻¹,0.000232 ± 7.4e-05 s⁻¹,9.98e-05 ± 2.4e-05 s⁻¹,0.000211 ± 5.4e-05 s⁻¹
G9C A14G G59U,< 1e-05 s⁻¹,,,
C10G G32C A48U C61G,< 1e-05 s⁻¹,< 1e-05 s⁻¹,,
A36U G41A U54G,< 1e-05 s⁻¹,< 1e-05 s⁻¹,,
A33U U54G U56G C61G U69C,9.03e-05 ± 2.7e-05 s⁻¹,0.00035 ± 0.00013 s⁻¹,0.000171 ± 6e-05 s⁻¹,

Variant,self-cleavage kobs at 160 uM GlcN6P (glucosamine-6-phosphate [1]),self-cleavage kobs at 640 uM GlcN6P (glucosamine-6-phosphate [2]),self-cleavage kobs at 2500 uM GlcN6P (glucosamine-6-phosphate [3]),self-cleavage kobs at 10000 uM GlcN6P (glucosamine-6-phosphate [4])
A6U A12C U49C U65G C67G,< 1e-05 s⁻¹,,,
A42C A48G U55A,< 1e-05 s⁻¹,< 1e-05 s⁻¹,,
A12G G35U G51U C68G U69A,< 1e-05 s⁻¹,< 1e-05 s⁻¹,,
C8G A14U G66U,< 1e-05 s⁻¹,< 1e-05 s⁻¹,,
A6U G35U A42C,< 1e-05 s⁻¹,< 1e-05 s⁻¹,,
A39C G51A G63C,< 1e-05 s⁻¹,< 1e-05 s⁻¹,,
A14U G35C U49G,< 1e-05 s⁻¹,,,
A33C U57G,< 1e-05 s⁻¹,,,
A14G G35U G60A C68G,< 1e-05 s⁻¹,,,
C16G G38A,< 1e-05 s⁻¹,< 1e-05 s⁻¹,,< 1e-05 s⁻¹
G35C A36C,< 1e-05 s⁻¹,< 1e-05 s⁻¹,,< 1e-05 s⁻¹
U30A G40C U49G,< 1e-05 s⁻¹,< 1e-05 s⁻¹,< 1e-05 s⁻¹,
G38U A52U,< 1e-05 s⁻¹,< 1e-05 s⁻¹,,< 1e-05 s⁻¹
A12U C58A G60U,< 1e-05 s⁻¹,< 1e-05 s⁻¹,,
U45G G51U,< 1e-05 s⁻¹,< 1e-05 s⁻¹,,< 1e-05 s⁻¹
A15U G40U A48C,< 1e-05 s⁻¹,< 1e-05 s⁻¹,,
C16U A39C A48U,< 1e-05 s⁻¹,,,
G38U G41A C58A C61A,< 1e-05 s⁻¹,< 1e-05 s⁻¹,,
A36G U49A,< 1e-05 s⁻¹,< 1e-05 s⁻¹,< 1e-05 s⁻¹,< 1e-05 s⁻¹
G41A G51C G63U C70G,< 1e-05 s⁻¹,< 1e-05 s⁻¹,,
A6C G40U C61A,< 1e-05 s⁻¹,,< 1e-05 s⁻¹,< 1e-05 s⁻¹
G13C A48G C71U,< 1e-05 s⁻¹,,,
A53C G60U A64U U65G,< 1e-05 s⁻¹,< 1e-05 s⁻¹,,
A14U U30C G43C G66C,< 1e-05 s⁻¹,,,
G13U G29A G66C,< 1e-05 s⁻¹,,,
G9U G40C G51A,< 1e-05 s⁻¹,< 1e-05 s⁻¹,< 1e-05 s⁻¹,
C16G A33C C58G G66A,< 1e-05 s⁻¹,,< 1e-05 s⁻¹,

Variant,self-cleavage kobs at 160 uM GlcN6P (glucosamine-6-phosphate [1]),self-cleavage kobs at 640 uM GlcN6P (glucosamine-6-phosphate [2]),self-cleavage kobs at 2500 uM GlcN6P (glucosamine-6-phosphate [3]),self-cleavage kobs at 10000 uM GlcN6P (glucosamine-6-phosphate [4])
G7U G40C G44U U47C G51U,< 1e-05 s⁻¹,,< 1e-05 s⁻¹,
U49C G51C G60C C68U,< 1e-05 s⁻¹,< 1e-05 s⁻¹,< 1e-05 s⁻¹,
G9A C34A G59C,< 1e-05 s⁻¹,< 1e-05 s⁻¹,< 1e-05 s⁻¹,
U47A G66A,0.00046 ± 0.00012 s⁻¹,0.00249 ± 0.00067 s⁻¹,0.00842 ± 0.0039 s⁻¹,
G44U G59A G60A,< 1e-05 s⁻¹,< 1e-05 s⁻¹,< 1e-05 s⁻¹,
U45C A53C C67U,< 1e-05 s⁻¹,5.23e-05 ± 1.6e-05 s⁻¹,6.03e-05 ± 1.8e-05 s⁻¹,
G9C A39C,< 1e-05 s⁻¹,< 1e-05 s⁻¹,< 1e-05 s⁻¹,< 1e-05 s⁻¹
A14C A36G C58U,< 1e-05 s⁻¹,,,
G59C G60A,< 1e-05 s⁻¹,,< 1e-05 s⁻¹,
C16G G59C A64C,< 1e-05 s⁻¹,,,
G38U G40U A53C C61G A64G C68A,< 1e-05 s⁻¹,< 1e-05 s⁻¹,,
A33G U45G U69A,< 1e-05 s⁻¹,< 1e-05 s⁻¹,,
G29U G32U A64U,< 1e-05 s⁻¹,,,
C50G G60U,4.83e-05 ± 1.6e-05 s⁻¹,,4.39e-05 ± 1.9e-05 s⁻¹,
C11G U46G G62A,< 1e-05 s⁻¹,< 1e-05 s⁻¹,< 1e-05 s⁻¹,< 1e-05 s⁻¹
G9C G32U A39U G41U,< 1e-05 s⁻¹,< 1e-05 s⁻¹,< 1e-05 s⁻¹,
A36C G41U,< 1e-05 s⁻¹,< 1e-05 s⁻¹,< 1e-05 s⁻¹,< 1e-05 s⁻¹
U47G C50U U56C A64U,< 1e-05 s⁻¹,< 1e-05 s⁻¹,< 1e-05 s⁻¹,< 1e-05 s⁻¹
G7C A14C U46G,< 1e-05 s⁻¹,< 1e-05 s⁻¹,< 1e-05 s⁻¹,
G40U A64U U65G C71G,< 1e-05 s⁻¹,< 1e-05 s⁻¹,,
A14C C50G,5.43e-05 ± 1.5e-05 s⁻¹,0.000625 ± 0.00028 s⁻¹,4.32e-05 ± 1.3e-05 s⁻¹,
G35C U47G U55G,< 1e-05 s⁻¹,,,< 1e-05 s⁻¹
A39C G40C A52G,< 1e-05 s⁻¹,< 1e-05 s⁻¹,,
C8A A53U U55G,< 1e-05 s⁻¹,< 1e-05 s⁻¹,,
A39U G40C U46C,5.92e-05 ± 1.4e-05 s⁻¹,0.000338 ± 5.3e-05 s⁻¹,0.000277 ± 7.4e-05 s⁻¹,
A6G C10G U46G,< 1e-05 s⁻¹,< 1e-05 s⁻¹,< 1e-05 s⁻¹,
G38A A39U,< 1e-05 s⁻¹,< 1e-05 s⁻¹,,

Variant,self-cleavage kobs at 160 uM GlcN6P (glucosamine-6-phosphate [1]),self-cleavage kobs at 640 uM GlcN6P (glucosamine-6-phosphate [2]),self-cleavage kobs at 2500 uM GlcN6P (glucosamine-6-phosphate [3]),self-cleavage kobs at 10000 uM GlcN6P (glucosamine-6-phosphate [4])
G29U A33U U54G,< 1e-05 s⁻¹,,,
G32C A48G G51U,< 1e-05 s⁻¹,< 1e-05 s⁻¹,< 1e-05 s⁻¹,
A39C C61U C71U,< 1e-05 s⁻¹,< 1e-05 s⁻¹,< 1e-05 s⁻¹,
C8A A33U G51A,< 1e-05 s⁻¹,< 1e-05 s⁻¹,,
U30G G37U,< 1e-05 s⁻¹,< 1e-05 s⁻¹,,< 1e-05 s⁻¹
C10G G32C A52U,< 1e-05 s⁻¹,< 1e-05 s⁻¹,< 1e-05 s⁻¹,
G32C A33U A52G,< 1e-05 s⁻¹,< 1e-05 s⁻¹,< 1e-05 s⁻¹,
C8G U46C A53C,< 1e-05 s⁻¹,,< 1e-05 s⁻¹,
G51U A52G C58U G59A,< 1e-05 s⁻¹,< 1e-05 s⁻¹,< 1e-05 s⁻¹,
G7C C10G,< 1e-05 s⁻¹,< 1e-05 s⁻¹,< 1e-05 s⁻¹,
G13A C50G,0.000122 ± 3.1e-05 s⁻¹,0.000253 ± 0.00011 s⁻¹,4.08e-05 ± 1.9e-05 s⁻¹,
C10U G13C C16G G32A,< 1e-05 s⁻¹,,,
A42C A52C C67G,< 1e-05 s⁻¹,,,
C34U U47A A48G U69G,< 1e-05 s⁻¹,,,
U31G G51C U57C,< 1e-05 s⁻¹,< 1e-05 s⁻¹,< 1e-05 s⁻¹,
C50A C70G,0.001 ± 0.00045 s⁻¹,7.68e-05 ± 1.2e-05 s⁻¹,6.7e-05 ± 8.5e-06 s⁻¹,
A12U A14C C71U,0.000143 ± 4.4e-05 s⁻¹,,0.00169 ± 0.00033 s⁻¹,
C50G U55A,9.39e-05 ± 2.2e-05 s⁻¹,,0.000374 ± 0.00012 s⁻¹,
A33C C70A,< 1e-05 s⁻¹,< 1e-05 s⁻¹,,< 1e-05 s⁻¹
G9A U30G G37U,< 1e-05 s⁻¹,,,
A14G U49A U56A G62A C71U,< 1e-05 s⁻¹,,,
A15C U65A,3.48e-05 ± 1.4e-05 s⁻¹,0.000177 ± 2.9e-05 s⁻¹,0.000234 ± 5.7e-05 s⁻¹,0.000807 ± 0.00016 s⁻¹
A6U C10U,< 1e-05 s⁻¹,,< 1e-05 s⁻¹,
A14C G35A,< 1e-05 s⁻¹,< 1e-05 s⁻¹,< 1e-05 s⁻¹,< 1e-05 s⁻¹

# Reference: the supplement of paper PMC7125110
